The record followed here is the Immune Epitope Database (IEDB).

Where only a bound is given, the exact number is not on record here.

One assay deals with HLA-C*04:01. Kind of assay: IEDB peptide-MHC binding, purified MHC/direct/fluorescence; filed as Kd, often an IC50 or EC50 that approximates it; ≥ and ≤ were set here for values at or beyond the usual limits of such assays. The note with it: source organism: Bacillus anthracis str. A0193.
The next assay has as its target HLA-C*03:03. The assay is described as above. The note with it: source organism: Bacillus anthracis str. A0193.
A further assay addresses HLA-A*02:50. Description: IEDB peptide-MHC binding, purified MHC/competitive/fluorescence; filed as Kd, often an IC50 or EC50 that approximates it; ≥ and ≤ were set here for values at or beyond the usual limits of such assays.
The target of assay [1] is HLA-A*69:01. Kind of assay: IEDB peptide-MHC binding, purified MHC/direct/fluorescence; filed as Kd, often an IC50 or EC50 that approximates it; ≥ and ≤ were set here for values at or beyond the usual limits of such assays.
For assay [2], the target named is HLA-A*02:01. The assay is described as above.
In another assay the target is HLA-C*05:01. The description is as above. The settings on record: source organism: Brucella abortus S19.
The target of another assay is HLA-A*02:12. Described as above.
In assay [3] the target is HLA-A*69:01. Kind of assay: IEDB peptide-MHC binding, purified MHC/competitive/fluorescence; filed as Kd, often an IC50 or EC50 that approximates it; ≥ and ≤ were set here for values at or beyond the usual limits of such assays.
The target in the next assay is HLA-B*27:03. Described as above.
Assay [4] concerns the target HLA-A*02:01. The assay is described as above.
The target of a further assay is HLA-B*51:01. The assay is described as above.
The target in another assay is HLA-B*18:01. The description is as above.
The next assay concerns the target HLA-B*39:01. Described as above.
Assay [5] deals with HLA-A*26:01. The assay is described as above.
A further assay deals with HLA-A*02:19. Description: IEDB peptide-MHC binding, purified MHC/direct/fluorescence; filed as Kd, often an IC50 or EC50 that approximates it; ≥ and ≤ were set here for values at or beyond the usual limits of such assays.
The next assay concerns the target HLA-A*23:01. The assay is described as above.
A further assay addresses HLA-A*11:01. Described as above.
Another assay concerns the target HLA-A*24:03. The assay is described as above.
The target in another assay is HLA-A*02:11. The description is as above.
The target in another assay is HLA-A*02:03. The assay is described as above.
Another assay deals with HLA-A*03:01. Described as above.
A further assay concerns the target HLA-A*02:16. The description is as above.
A further assay deals with HLA-A*68:02. The description is as above.
The target in assay [6] is HLA-B*15:01. Described as above.
Another assay concerns the target HLA-B*27:05. The assay is described as above.
A further assay has as its target HLA-A*31:01. Described as above.
In the next assay the target is HLA-B*40:01. The description is as above.
The target of assay [7] is HLA-B*08:01. The assay is described as above. The settings on record: source organism: Vibrio cholerae.
The target in the next assay is HLA-A*01:01. Described as above.
The target in the next assay is HLA-B*58:01. The description is as above.
For assay [8], the target named is HLA-B*07:02. Described as above. The note with it: source organism: Vibrio cholerae.
The target in assay [9] is HLA-A*26:01. The assay is described as above.
Another assay has as its target HLA-B*44:02. The description is as above. The settings on record: source organism: Vibrio cholerae.
Assay [10] has as its target HLA-B*15:01. Kind of assay: IEDB peptide-MHC binding, purified MHC/competitive/fluorescence; filed as Kd, often an IC50 or EC50 that approximates it; ≥ and ≤ were set here for values at or beyond the usual limits of such assays.
For the next assay, the target named is HLA-B*57:01. The assay is described as above. The settings on record: source organism: Zaire ebolavirus.
For a further assay, the target named is HLA-B*46:01. The description is as above. The note with it: source organism: Zaire ebolavirus.
Another assay addresses HLA-A*29:02. Description: IEDB peptide-MHC binding, purified MHC/direct/fluorescence; filed as Kd, often an IC50 or EC50 that approximates it; ≥ and ≤ were set here for values at or beyond the usual limits of such assays. The settings on record: source organism: Zaire ebolavirus.
The target of another assay is HLA-A*30:01. Description: IEDB peptide-MHC binding, purified MHC/competitive/fluorescence; filed as Kd, often an IC50 or EC50 that approximates it; ≥ and ≤ were set here for values at or beyond the usual limits of such assays. The note with it: source organism: Human immunodeficiency virus 1.
For assay [11], the target named is HLA-B*08:01. The description is as above. The settings on record: source organism: Escherichia coli O157:H7 str. EDL933.
The target in assay [12] is HLA-B*07:02. Described as above. The note with it: source organism: Escherichia coli O157:H7 str. EDL933.
[13] abbreviates: source organism: Brucella abortus 2308.
Where [14] appears, read: source organism: Cryptosporidium parvum Iowa II.
Where [15] appears, read: source organism: Vibrio cholerae.
Setting [16] is: source organism: Zaire ebolavirus.
[17] abbreviates: source organism: Escherichia coli O157:H7 str. EDL933.
The mark [18] stands for this setting: source organism: Haemophilus influenzae.

As for YAIYTLGEM, the dissociation constant (Kd) (in general, the concentration at which binding is half-saturated) is no less than 20 µM with HLA-C*04:01 and no more than 0.001 µM with HLA-C*03:03.

YVDIIGLSV: the Kd was determined as 0.0091 µM in the assay with HLA-A*02:50 (source organism: Brucella abortus S19); 0.0085 µM in the assay with HLA-A*69:01 [1] (setting [13]); 0.056 µM with HLA-A*02:01 [2] (setting [13]); 0.002 µM in the assay with HLA-C*05:01; 0.005 µM with HLA-A*02:12 (source organism: Brucella suis 1330).

For MSQMPPHPY, the Kd in the assay with HLA-A*69:01 [3] (setting [14]), in the assay with HLA-B*27:03 (setting [14]), with HLA-A*02:01 [4] (setting [14]), with HLA-B*51:01 (setting [14]), in the assay with HLA-B*18:01 (setting [14]) and with HLA-B*39:01 (setting [14]) was no less than 20 µM each time. The equilibrium dissociation constant (Kd) with HLA-A*26:01 [5] (setting [14]) is no less than 20 µM; with HLA-A*02:19 (setting [14]) it was no less than 20 µM; with HLA-A*23:01 (setting [14]) it was no less than 20 µM; with HLA-A*11:01 (setting [14]), 0.377 µM; with HLA-A*24:03 (setting [14]), no less than 20 µM; with HLA-A*02:11 (setting [14]) it was no less than 20 µM. For the same sequence, the Kd with HLA-A*02:12 (setting [14]), in the assay with HLA-A*02:03 (setting [14]), in the assay with HLA-A*03:01 (setting [14]), with HLA-A*02:16 (setting [14]) and with HLA-A*68:02 (setting [14]) was no less than 20 µM in each case.

For ALYWALMES, the Kd with HLA-A*02:50 (source organism: Vibrio cholerae 2740-80) was 0.0002 µM; with HLA-B*15:01 [6] (setting [15]), no less than 20 µM; in the assay with HLA-B*27:05 (setting [15]), no less than 20 µM; in the assay with HLA-A*69:01 [1] (setting [15]) it was no less than 20 µM; in the assay with HLA-A*31:01 (setting [15]), no less than 20 µM; in the assay with HLA-B*40:01 (setting [15]), no less than 20 µM. The Kd in the assay with HLA-B*08:01 [7] is no less than 20 µM; in the assay with HLA-A*01:01 (setting [15]), no less than 20 µM; with HLA-B*58:01 (setting [15]) it was no less than 20 µM; in the assay with HLA-A*11:01 (setting [15]) it was no less than 20 µM; with HLA-A*24:03 (setting [15]) it was no less than 20 µM; in the assay with HLA-A*02:01 [2] (setting [15]) it was 0.021 µM. The Kd with HLA-B*07:02 [8], with HLA-A*26:01 [9] (setting [15]), with HLA-A*03:01 (setting [15]) and with HLA-B*44:02 was no less than 20 µM throughout.

Turning to LTDRELLLL, the dissociation constant (Kd) with HLA-B*15:01 [10] (setting [16]), in the assay with HLA-A*69:01 [3] (setting [16]), with HLA-B*57:01, with HLA-B*27:03 (setting [16]), with HLA-B*46:01 and in the assay with HLA-A*02:01 [4] (setting [16]) was no less than 20 µM in each case. The Kd with HLA-B*51:01 (setting [16]), in the assay with HLA-B*18:01 (setting [16]), with HLA-B*39:01 (setting [16]), with HLA-A*26:01 [5] (setting [16]), with HLA-A*02:19 (setting [16]) and with HLA-A*23:01 (setting [16]) was no less than 20 µM throughout. Also, the equilibrium dissociation constant (Kd) is 0.255 µM with HLA-A*01:01 (source organism: Sudan ebolavirus - Uganda (2000)); no less than 20 µM with HLA-A*29:02; no less than 20 µM with HLA-A*24:03 (setting [16]); no less than 20 µM with HLA-A*02:11 (setting [16]); no less than 20 µM in the assay with HLA-A*02:12 (setting [16]); no less than 20 µM in the assay with HLA-A*02:03 (setting [16]). The dissociation constant Kd with HLA-A*03:01 (setting [16]), in the assay with HLA-A*02:16 (setting [16]) and with HLA-A*68:02 (setting [16]) was no less than 20 µM throughout.

In the assay with HLA-A*30:01, EELRSLYNTV registered a Kd of no less than 20 µM.

For the sequence MQRSGMLSL, the Kd with HLA-B*15:01 [10] (setting [17]) turned out to be 0.08 µM; with HLA-B*08:01 [11], 0.197 µM; in the assay with HLA-B*07:02 [12], 0.007 µM; in the assay with HLA-B*39:01 (setting [17]), 0.061 µM.

FLADYRGKT: the dissociation constant Kd in the assay with HLA-A*02:50 (source organism: Haemophilus influenzae R2846) is 0.0019 µM; in the assay with HLA-B*15:01 [6] (setting [18]), no less than 20 µM; in the assay with HLA-B*27:05 (setting [18]) it was no less than 20 µM; in the assay with HLA-A*69:01 [1] (setting [18]), no less than 20 µM; with HLA-A*31:01 (setting [18]), no less than 20 µM; with HLA-B*40:01 (setting [18]) it was no less than 20 µM. Also, the Kd with HLA-A*01:01 (setting [18]) is no less than 20 µM; with HLA-B*58:01 (setting [18]), no less than 20 µM; with HLA-A*11:01 (setting [18]), no less than 20 µM; with HLA-A*02:01 [2] (setting [18]), 1.36 µM; in the assay with HLA-A*26:01 [9] (setting [18]), no less than 20 µM; with HLA-A*03:01 (setting [18]), no less than 20 µM.
